From US20250002610A1 (Genmab, published 2025)
Residue numbers refer to the chain shown, from its start.

T1: cynomolgus monkey FAPα on Expi293F cells (cynomolgus monkey (Macaca fascicularis), UniProt Q12884 1-760 (human entry))
T1 sequence: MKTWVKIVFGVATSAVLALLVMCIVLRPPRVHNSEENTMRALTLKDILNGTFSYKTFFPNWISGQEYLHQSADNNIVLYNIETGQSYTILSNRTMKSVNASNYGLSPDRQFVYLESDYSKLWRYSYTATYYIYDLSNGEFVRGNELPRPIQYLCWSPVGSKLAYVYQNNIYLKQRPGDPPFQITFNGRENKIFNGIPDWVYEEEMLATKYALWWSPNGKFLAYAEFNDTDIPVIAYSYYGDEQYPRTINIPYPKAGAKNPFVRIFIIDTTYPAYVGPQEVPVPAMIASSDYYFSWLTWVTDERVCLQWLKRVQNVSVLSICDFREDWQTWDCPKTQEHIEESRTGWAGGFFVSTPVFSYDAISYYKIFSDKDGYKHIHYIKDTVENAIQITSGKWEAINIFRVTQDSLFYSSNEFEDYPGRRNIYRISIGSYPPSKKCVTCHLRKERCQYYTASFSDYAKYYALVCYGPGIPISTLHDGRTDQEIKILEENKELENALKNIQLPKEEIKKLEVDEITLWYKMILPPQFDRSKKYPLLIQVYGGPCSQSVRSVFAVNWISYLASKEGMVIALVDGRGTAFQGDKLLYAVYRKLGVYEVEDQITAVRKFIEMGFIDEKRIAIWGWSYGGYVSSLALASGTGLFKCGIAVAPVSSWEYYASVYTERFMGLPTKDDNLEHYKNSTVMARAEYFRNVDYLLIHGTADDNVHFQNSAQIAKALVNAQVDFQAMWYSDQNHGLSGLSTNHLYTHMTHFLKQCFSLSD

B1: BisG1-FAPα-FERL/DR4-FERR (bispecific antibody, human IgG1, kappa, lambda)
heavy 1: EVQLLESGGGLVQPGGSPRLSCEASGFTFSSYALSWVRQAPGKGLEWVSAISGSGGGRYYADSVKGRFTISRDNSKNTLFLQMNSLRAEDTAVYYCAKEGYSSSGTYWDHWGQGTLVTVSSASTKGPSVFPLAPSSKSTSGGTAALGCLVKDYFPEPVTVSWNSGALTSGVHTFPAVLQSSGLYSLSSVVTVPSSSLGTQTYICNVNHKPSNTKVDKRVEPKSCDKTHTCPPCPAPEFERGPSVFLFPPKPKDTLMISRTPEVTCVVVDVSHEDPEVKFNWYVDGVEVHNAKTKPREEQYNSTYRVVSVLTVLHQDWLNGKEYKCKVSNKALPAPIEKTISKAKGQPREPQVYTLPPSREEMTKNQVSLTCLVKGFYPSDIAVEWESNGQPENNYKTTPPVLDSDGSFLLYSKLTVDKSRWQQGNVFSCSVMHEALHNHYTQKSLSLSPG
light 1: AIQMTQSPSSVSASVGDRVTITCRASQGVSSWLAWYQQKPGRAPKLLIYVASTLQSGVPSRFSGSGSGTDFTLTINSLQPEDFATYYCQQANSFPPTFGQGTRLEMKRTVAAPSVFIFPPSDEQLKSGTASVVCLLNNFYPREAKVQWKVDNALQSGNSQESVTEQDSKDSTYSLSSTLTLSKADYEKHKVYACEVTHQGLSSPVTKSFNRGEC
heavy 2: QVQLQESGPGLVKPSGTLSLTCAVSGGSISSYSWWSWIRQPPGKGLEWIGELYHSGSTNYNPSLKSRVTISVDKSKNQFSLKLRSVTAADTAVYYCVRGVATIDYWGQGTLVTVSSASTKGPSVFPLAPSSKSTSGGTAALGCLVKDYFPEPVTVSWNSGALTSGVHTFPAVLQSSGLYSLSSVVTVPSSSLGTQTYICNVNHKPSNTKVDKRVEPKSCDKTHTCPPCPAPEFERGPSVFLFPPKPKDTLMISRTPEVTCVVVDVSHEDPEVKFNWYVDGVEVHNAKTKPREEQYNSTYRVVSVLTVLHQDWLNGKEYKCKVSNKALPAPIEKTISKAKGQPREPQVYTLPPSREEMTKNQVSLTCLVKGFYPSDIAVEWESNGQPENNYKTTPPVLDSDGSFFLYSRLTVDKSRWQQGNVFSCSVMHEALHNHYTQKSLSLSPG
light 2: QSALTQPPSASGSPGQSVTISCTGTSSDVGGYNFVSWYQQDPGKAPKLLIYEVTKRPSGVPDRFSGSKSGNTASLTVSGLQAEDEADYYCSSYAGSNNVMFGGGTKLTVLGQPKAAPSVTLFPPSSEELQANKATLVCLISDFYPGAVTVAWKADSSPVKAGVETTTPSKQSNNKYAASSYLSLTPEQWKSHRSYSCQVTHEGSTVEKTVAPTECS
notes: Human IgG1 bispecific made by controlled Fab-arm exchange of IgG1-FAPα-FERL and IgG1-DR4-FERR; monovalent for FAPα and for DR4; also called GEN1057
B2: IgG1-FAPα-FERL (antibody)
heavy: B1 heavy 1
light: B1 light 1
notes: Bivalent monoclonal IgG1 kappa
B3: BisG1-FAPα-FEAL/b12-FEAR (bispecific antibody, human IgG1, kappa)
heavy 1: B1 heavy 1 with R240G, D269A
light 1: B1 light 1
heavy 2: QVQLVQSGAEVKKPGASVKVSCQASGYRFSNFVIHWVRQAPGQRFEWMGWINPYNGNKEFSAKFQDRVTFTADTSANTAYMELRSLRSADTAVYYCARVGPYSWDDSPQDNYYMDVWGKGTTVIVSSASTKGPSVFPLAPSSKSTSGGTAALGCLVKDYFPEPVTVSWNSGALTSGVHTFPAVLQSSGLYSLSSVVTVPSSSLGTQTYICNVNHKPSNTKVDKRVEPKSCDKTHTCPPCPAPEFEGGPSVFLFPPKPKDTLMISRTPEVTCVVVAVSHEDPEVKFNWYVDGVEVHNAKTKPREEQYNSTYRVVSVLTVLHQDWLNGKEYKCKVSNKALPAPIEKTISKAKGQPREPQVYTLPPSREEMTKNQVSLTCLVKGFYPSDIAVEWESNGQPENNYKTTPPVLDSDGSFFLYSRLTVDKSRWQQGNVFSCSVMHEALHNHYTQKSLSLSPG
light 2: EIVLTQSPGTLSLSPGERATFSCRSSHSIRSRRVAWYQHKPGQAPRLVIHGVSNRASGISDRFSGSGSGTDFTLTITRVEPEDFALYYCQVYGASSYTFGQGTKLERKRTVAAPSVFIFPPSDEQLKSGTASVVCLLNNFYPREAKVQWKVDNALQSGNSQESVTEQDSKDSTYSLSSTLTLSKADYEKHKVYACEVTHQGLSSPVTKSFNRGEC
notes: Fab-arm exchange of IgG1-FAPα-FEAL and IgG1-b12-FEAR

These binders were tested against T1, cynomolgus monkey FAPα on Expi293F cells (assay: flow cytometry, Expi293F cells expressing cynomolgus monkey FAPα, average ± SEM).
Procedure: Binding of BisG1-FAPα-FERL/DR4-FERR, BisG1-FAPα-FEAL/b12-FEAR and IgG1-FAPα-FERL to FAPα of species commonly used for nonclinical toxicology studies was assessed by flow cytometry using Expi293F cells transiently expressing FAPα from different animal species. IgG1-b12 was included as negative control.
Expi293F cells expressing recombinant FAPα from various species (human, cynomolgus monkey, dog, pig, rat or mouse) were seeded (20,000 cells/well) in 96-Well round bottom plates (Greiner Bio-one, Cat #650101). Antibody dilutions were prepared using FACS buffer, consisting of PBS (Capricorn Scientific, Cat #PBS-10XA, diluted to 1×PBS in distilled water)+1% BSA (Roche, Cat #10735086001)+0.02% Sodium Azide (Bio-World, Cat #41920044-3). Plates were centrifuged, supernatant was removed, and cells were resuspended in 100 μL of antibody dilutions (concentration range 30-0.00017 μg/mL with three-fold serial dilutions using FACS buffer) of BisG1-FAPα-FERL/DR4-FERR, BisG1-FAPα-FEAL/b12-FEAR, IgG1-FAPα-FERL and IgG1-b12 and incubated for 30 min at 4° C. […] After 30 min incubation at 4° C., cells were washed with FACS buffer and resuspended in FACS buffer supplemented with TO-PRO-3 Iodide viability marker (Invitrogen, Cat #T3605, diluted 1:4,000). Antibody binding to viable cells (gMFI of PE on TO-PRO-3 negative cells) was analyzed by flow cytometry on a FACS Celesta and FACS_Diva software (first two experiments) or iQue® 3 and FlowJo software (last experiment). gMFI was determined and visualized using GraphPad Prism. Binding curves were analyzed using nonlinear regression analysis. The concentration (pg/mL) at which 50% of the maximal effect was observed (EC₅₀) was derived from the fitted curves.
B1 gave an EC50 of 0.25 µg/mL. B2 was tested, and the EC50 was 0.1 µg/mL. B3 gave an EC50 of 0.19 µg/mL.
